Measured values taken from PMC5343488, “Epilepsy and intellectual disability linked protein Shrm4 interaction with GABABRs shapes inhibitory neurotransmission” (Nature Communications, 2017).

Target: T1, GST-PDZ (Shrm4-PDZ domain, aa 1–91) (human, UniProt Q9ULL8 1-91)
T1 construct: Shrm4 (Shroom4), encoded by KIAA1202, PDZ domain, aa 1-91; in pGEX-4T-1, which should put GST at the N-terminus; source: E. coli BL21, purified using standard procedures
T1 sequence (looked up): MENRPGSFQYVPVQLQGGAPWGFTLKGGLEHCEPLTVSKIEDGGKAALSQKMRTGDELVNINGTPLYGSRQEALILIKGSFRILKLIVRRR
Experiment: pull-down; competition: synthetic Tat-859–870 peptide added to the HEK293 lysate before the pull-down of GABAB1a by purified GST-PDZ; 10 μM or different concentrations
Details: both partners purified

B1: Tat-859–870 peptide (peptide)
peptide: YGRKKRRQRRRITRGEWQSET
notes: stretch of the GABAB1 C-tail named 859–870; also called Tat-peptide; Tat-859–870 (active) peptide; source: synthetic peptide (bought: Primm, Italy, and China Peptide, China)
binding result: binds
